Data: patent US11844843 (DYNE THERAPEUTICS, dated 2023)

What was measured:
[1] = target: T1, recombinant cynomolgus monkey (Macaca fascicularis) TfR1 (cynomolgus monkey (Macaca fascicularis), UniProt Q5RDH6 87-760 (Pongo abelii entry), limits assumed); assay: ELISA on cTfR1, unconjugated Fab, % normalized RFUs
T1 construct: Recombinant protein; also called cTfR1; cyTfR1
T1 chain: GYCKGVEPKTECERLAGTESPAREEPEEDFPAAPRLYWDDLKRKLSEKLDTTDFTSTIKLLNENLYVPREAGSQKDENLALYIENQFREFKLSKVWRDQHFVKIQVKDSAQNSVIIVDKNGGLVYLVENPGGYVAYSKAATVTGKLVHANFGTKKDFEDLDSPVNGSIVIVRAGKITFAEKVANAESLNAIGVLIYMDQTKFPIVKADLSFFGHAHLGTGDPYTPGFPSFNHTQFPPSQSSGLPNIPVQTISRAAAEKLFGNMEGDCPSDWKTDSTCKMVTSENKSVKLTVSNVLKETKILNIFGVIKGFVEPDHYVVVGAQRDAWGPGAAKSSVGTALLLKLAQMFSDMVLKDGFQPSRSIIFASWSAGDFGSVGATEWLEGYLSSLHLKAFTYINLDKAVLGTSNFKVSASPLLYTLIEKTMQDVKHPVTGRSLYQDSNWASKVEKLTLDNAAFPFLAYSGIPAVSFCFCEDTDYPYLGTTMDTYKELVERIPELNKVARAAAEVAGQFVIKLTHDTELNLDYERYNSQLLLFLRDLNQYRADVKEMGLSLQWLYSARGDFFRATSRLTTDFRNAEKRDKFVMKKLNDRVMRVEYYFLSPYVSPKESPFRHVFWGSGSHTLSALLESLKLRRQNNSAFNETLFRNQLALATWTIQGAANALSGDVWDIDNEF

[2] = target: T2, recombinant human TfR2 (transferrin receptor 2) (human, UniProt Q9UP52 105-801, limits assumed); assay: ELISA on plate-coated recombinant human TfR2, anti-(H+L) IgG-A488 secondary
T2 construct: Recombinant protein in ELISA and SPR; also called hTfR2
T2 sequence (looked up): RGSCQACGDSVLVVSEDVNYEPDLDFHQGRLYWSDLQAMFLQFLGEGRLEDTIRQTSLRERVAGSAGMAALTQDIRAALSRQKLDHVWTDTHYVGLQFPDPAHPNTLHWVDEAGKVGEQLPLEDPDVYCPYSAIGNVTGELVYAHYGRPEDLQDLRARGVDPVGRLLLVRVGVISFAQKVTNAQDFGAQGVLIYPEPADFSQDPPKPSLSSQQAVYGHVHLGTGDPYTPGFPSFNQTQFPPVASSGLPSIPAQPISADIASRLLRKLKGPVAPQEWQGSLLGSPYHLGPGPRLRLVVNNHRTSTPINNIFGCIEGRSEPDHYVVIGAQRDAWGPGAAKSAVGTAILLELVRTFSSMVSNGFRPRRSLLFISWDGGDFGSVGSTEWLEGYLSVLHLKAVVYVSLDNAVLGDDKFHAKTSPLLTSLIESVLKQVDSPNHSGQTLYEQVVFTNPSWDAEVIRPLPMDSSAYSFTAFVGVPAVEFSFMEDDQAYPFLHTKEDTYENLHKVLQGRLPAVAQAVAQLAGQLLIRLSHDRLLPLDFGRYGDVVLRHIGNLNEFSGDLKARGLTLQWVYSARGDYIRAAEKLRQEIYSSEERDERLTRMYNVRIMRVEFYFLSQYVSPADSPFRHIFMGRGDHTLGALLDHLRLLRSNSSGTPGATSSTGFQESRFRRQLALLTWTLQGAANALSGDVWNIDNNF
Description: Recombinant human TfR2 protein was plated overnight at […] and was blocked for 1 hour with 1% bovine serum albumin (BSA) in PBS. Serial dilutions of the Fab or a positive control anti-TfR2 antibody were added in 0.5% BSA/TBST for 1 hour. After washing, anti-(H+L) IgG-A488 (Invitrogen #MA5-25932) fluorescent secondary antibody was added at a 1:500 dilution in 0.5% BSA/TBST and the plate was incubated for 1 hour. Relative fluorescence was measured using a Biotek Synergy plate reader at 495 nm excitation and 520 nm emission.

[3] = target: T1, recombinant cynomolgus monkey (Macaca …); assay: ELISA on plate-coated recombinant cTfR1, fluorescent anti-(H+L) IgG-A488 detection, % normalized RFUs
Description: To measure binding of humanized anti-TfR antibodies to TfR1, ELISAs were conducted. High binding, black, flat bottom, 96 well plates (Corning #3925) were first coated with 100 μL/well of recombinant huTfR1 at 1 μg/mL in PBS and incubated at 4° C. overnight. Wells were emptied and residual liquid was removed. Blocking was conducted by adding 200 μL of 1% BSA (w/w) in PBS to each well. Blocking was allowed to proceed for 2 hours at room temperature on a shaker at 30) rpm. After blocking, liquid was removed and wells were washed three times with 300 μL of TBST. Anti-TfR1 antibodies were then added in 0.5% BSA/TBST in triplicate in an 8 point serial dilution (dilution range 5 μg/mL-5 ng/mL). A positive control and isotype controls were also included on the ELISA plate. The plate was incubated at room temperature on an orbital shaker for 60 minutes at 300 rpm, and the plate was washed three times with 300 μL of TBST. Anti-(H+L)IgG-A488 (1:500) (Invitrogen #A11013) was diluted in 0.5% BSA in TBST, and 100 μL was added to each well. The plate was then allowed to incubate at room temperature for 60 minutes at 300 rpm on orbital shaker. The liquid was removed and the plate was washed four times with 300 μL of TBST. […] Data was recorded and analyzed for $EC50$. […]

[4] = target: T3, recombinant human TfR1 (transferrin receptor protein 1) (human, UniProt P02786 89-760); assay: Biacore, d25; TfR1 species not stated
T3 construct: Recombinant protein in SPR and ELISA; they were assigned to this molecule; also called hTfR1; huTfR1

[5] = target: T3, recombinant human TfR1 (transferrin …); assay: Biacore, d0; TfR1 species not stated

T3 sequence (P02786 89-760 limits assumed): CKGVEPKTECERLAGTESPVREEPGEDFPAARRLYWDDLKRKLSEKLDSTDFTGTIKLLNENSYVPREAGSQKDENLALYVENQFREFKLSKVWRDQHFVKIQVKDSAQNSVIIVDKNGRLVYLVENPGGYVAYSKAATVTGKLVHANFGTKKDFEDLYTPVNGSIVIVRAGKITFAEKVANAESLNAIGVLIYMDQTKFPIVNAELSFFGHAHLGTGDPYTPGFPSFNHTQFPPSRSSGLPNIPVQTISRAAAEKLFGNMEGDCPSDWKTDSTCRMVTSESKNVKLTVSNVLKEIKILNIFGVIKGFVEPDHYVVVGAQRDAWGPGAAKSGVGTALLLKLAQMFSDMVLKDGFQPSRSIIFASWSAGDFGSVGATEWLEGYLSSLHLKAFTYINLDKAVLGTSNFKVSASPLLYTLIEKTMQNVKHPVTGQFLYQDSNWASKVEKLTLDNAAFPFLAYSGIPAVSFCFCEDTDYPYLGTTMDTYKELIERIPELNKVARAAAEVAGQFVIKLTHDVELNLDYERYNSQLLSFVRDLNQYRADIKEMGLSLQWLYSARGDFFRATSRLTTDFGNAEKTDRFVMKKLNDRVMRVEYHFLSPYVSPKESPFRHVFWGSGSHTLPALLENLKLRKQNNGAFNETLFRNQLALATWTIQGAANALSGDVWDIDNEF

EC50 [1]: 9.9 nM | binding result [2]: no binding (tested: 500 nM) | EC50 [3]: 9.9 nM | Kd [4]: 0.486 nM | Kd [5]: 0.341 nM
B1: humanized anti-TfR Fab 3M12 VH4/Vκ3 (Fab, V domains shown)
VH: QVQLQESGPGLVKPSQTLSLTCTVTGYSITSGYYWNWIRQPPGKGLEWIGYITFDGANNYNPSLKNRVSISRDTSKNQFSLKLSSVTAEDTATYYCTRSSYDYDVLDYWGQGTTVTVSS
VL: DIQMTQSPSSLSASVGDRVTITCRASQDISNFLNWYQQKPGQPVKLLIYYTSRLHSGVPSRFSGSGSGTDFTLTISSLQPEDFATYYCQQGHTLPYTFGQGTKLEIKR
notes: also called 3M12 (VH4/Vk3); anti-TfR Fab 3M12 VH4/Vk3
